{"source": "paper PMC4695337", "about": "“Crystal Structure of a Eukaryotic GEN1 Resolving Enzyme Bound to DNA”", "key": {"CtGEN1 [1]": {"biological_target": "T1, CtGEN1 (Chaetomium thermophilum? (printed C. …, UniProt G0RYN2 1-487))", "T1 sequence": "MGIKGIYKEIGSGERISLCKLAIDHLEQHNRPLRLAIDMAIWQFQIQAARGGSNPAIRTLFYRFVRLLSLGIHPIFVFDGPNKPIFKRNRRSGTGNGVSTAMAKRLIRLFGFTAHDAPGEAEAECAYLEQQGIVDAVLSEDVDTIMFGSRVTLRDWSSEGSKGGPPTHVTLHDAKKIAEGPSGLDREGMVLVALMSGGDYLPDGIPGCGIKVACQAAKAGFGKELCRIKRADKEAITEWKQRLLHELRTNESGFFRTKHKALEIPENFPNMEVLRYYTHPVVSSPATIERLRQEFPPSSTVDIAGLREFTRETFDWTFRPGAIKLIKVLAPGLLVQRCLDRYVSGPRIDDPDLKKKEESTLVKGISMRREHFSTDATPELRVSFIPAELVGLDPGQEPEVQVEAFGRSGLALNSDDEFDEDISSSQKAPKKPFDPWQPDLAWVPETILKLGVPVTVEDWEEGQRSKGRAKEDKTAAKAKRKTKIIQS", "test": "EMSA; EMSA fitted to Hill equation, protein 2.1-43 nM (monomer); binding buffer and temperature not in material. Crystals: 100 mM HEPES pH 7.5, 2 mM MgCl2, 20% PEG10000, 7 C", "conditions": "protein: recombinant; tags: C-terminal His6; four-way junction of 4 strands (b/h/r/x)"}, "CtGEN1 D141A": {"biological_target": "T2, CtGEN1 D141A (Chaetomium thermophilum? (printed C. …, UniProt G0RYN2 1-487, D141A))", "T2 sequence": "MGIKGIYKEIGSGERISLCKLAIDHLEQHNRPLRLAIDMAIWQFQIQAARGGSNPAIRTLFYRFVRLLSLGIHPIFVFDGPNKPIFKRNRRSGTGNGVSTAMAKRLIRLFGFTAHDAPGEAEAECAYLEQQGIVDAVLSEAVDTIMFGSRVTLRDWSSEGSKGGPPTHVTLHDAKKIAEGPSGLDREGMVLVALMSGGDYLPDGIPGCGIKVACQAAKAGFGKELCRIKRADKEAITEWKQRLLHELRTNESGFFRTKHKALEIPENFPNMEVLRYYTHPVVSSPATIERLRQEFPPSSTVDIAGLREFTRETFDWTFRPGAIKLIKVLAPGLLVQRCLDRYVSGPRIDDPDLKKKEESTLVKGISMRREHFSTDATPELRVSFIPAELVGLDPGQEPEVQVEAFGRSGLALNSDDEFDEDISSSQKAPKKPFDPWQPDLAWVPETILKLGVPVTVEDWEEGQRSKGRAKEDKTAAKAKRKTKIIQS", "test": "EMSA; EMSA fitted to Hill equation, protein 2.1-43 nM (monomer); binding buffer and temperature not in material. Crystals: 100 mM HEPES pH 7.5, 2 mM MgCl2, 20% PEG10000, 7 C", "conditions": "protein: recombinant; tags: C-terminal His6; chain copies: 2; four-way junction of 4 strands (b/h/r/x)"}, "CtGEN1 E122A": {"biological_target": "T3, CtGEN1 E122A (Chaetomium thermophilum? (printed C. …, UniProt G0RYN2 1-487, E122A))", "T3 sequence": "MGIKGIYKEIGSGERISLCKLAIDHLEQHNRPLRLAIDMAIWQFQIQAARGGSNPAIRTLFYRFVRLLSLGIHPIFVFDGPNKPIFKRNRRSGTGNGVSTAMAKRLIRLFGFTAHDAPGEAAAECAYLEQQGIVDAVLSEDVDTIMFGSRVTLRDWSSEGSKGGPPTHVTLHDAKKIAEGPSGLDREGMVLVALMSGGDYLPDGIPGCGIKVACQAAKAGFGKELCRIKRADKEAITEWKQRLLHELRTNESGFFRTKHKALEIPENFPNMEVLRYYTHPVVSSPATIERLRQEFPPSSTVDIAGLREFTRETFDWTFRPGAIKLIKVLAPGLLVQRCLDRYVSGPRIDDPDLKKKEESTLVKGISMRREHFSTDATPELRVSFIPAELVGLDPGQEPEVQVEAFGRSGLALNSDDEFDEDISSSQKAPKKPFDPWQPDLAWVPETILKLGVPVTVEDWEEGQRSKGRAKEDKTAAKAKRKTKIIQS", "test": "EMSA; EMSA fitted to Hill equation, protein 2.1-43 nM (monomer); binding buffer and temperature not in material. Crystals: 100 mM HEPES pH 7.5, 2 mM MgCl2, 20% PEG10000, 7 C", "conditions": "protein: recombinant; tags: C-terminal His6; chain copies: 2; four-way junction of 4 strands (b/h/r/x)"}, "CtGEN1 E120A": {"biological_target": "T4, CtGEN1 E120A (Chaetomium thermophilum? (printed C. …, UniProt G0RYN2 1-487, E120A))", "T4 sequence": "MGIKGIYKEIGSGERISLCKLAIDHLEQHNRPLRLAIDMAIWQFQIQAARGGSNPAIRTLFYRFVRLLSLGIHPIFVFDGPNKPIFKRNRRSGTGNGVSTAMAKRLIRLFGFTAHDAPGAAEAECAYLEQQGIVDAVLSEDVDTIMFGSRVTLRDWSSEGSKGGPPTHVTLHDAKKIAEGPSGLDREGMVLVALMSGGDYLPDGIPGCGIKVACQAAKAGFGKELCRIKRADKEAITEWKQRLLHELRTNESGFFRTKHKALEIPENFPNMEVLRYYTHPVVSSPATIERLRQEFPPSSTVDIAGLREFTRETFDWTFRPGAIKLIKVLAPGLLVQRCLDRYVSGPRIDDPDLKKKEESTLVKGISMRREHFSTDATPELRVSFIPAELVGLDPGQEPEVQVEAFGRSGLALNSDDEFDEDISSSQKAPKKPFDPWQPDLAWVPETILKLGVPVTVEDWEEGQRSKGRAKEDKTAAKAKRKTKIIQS", "test": "EMSA; EMSA fitted to Hill equation, protein 2.1-43 nM (monomer); binding buffer and temperature not in material. Crystals: 100 mM HEPES pH 7.5, 2 mM MgCl2, 20% PEG10000, 7 C", "conditions": "protein: recombinant; tags: C-terminal His6; chain copies: 2; four-way junction of 4 strands (b/h/r/x)"}, "CtGEN1 D38A": {"biological_target": "T5, CtGEN1 D38A (Chaetomium thermophilum? (printed C. …, UniProt G0RYN2 1-487, D38A))", "T5 sequence": "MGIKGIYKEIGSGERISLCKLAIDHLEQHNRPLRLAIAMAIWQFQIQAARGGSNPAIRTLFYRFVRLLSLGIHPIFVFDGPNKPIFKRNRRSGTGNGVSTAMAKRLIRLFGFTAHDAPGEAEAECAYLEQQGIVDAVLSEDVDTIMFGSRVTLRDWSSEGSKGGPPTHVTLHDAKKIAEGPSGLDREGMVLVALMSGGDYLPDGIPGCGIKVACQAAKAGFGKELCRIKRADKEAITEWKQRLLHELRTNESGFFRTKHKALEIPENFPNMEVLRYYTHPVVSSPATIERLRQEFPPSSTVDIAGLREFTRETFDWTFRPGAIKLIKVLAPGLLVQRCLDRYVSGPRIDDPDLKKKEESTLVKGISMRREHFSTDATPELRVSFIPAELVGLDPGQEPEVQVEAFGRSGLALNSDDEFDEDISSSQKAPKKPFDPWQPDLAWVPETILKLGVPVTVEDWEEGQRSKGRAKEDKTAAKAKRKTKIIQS", "test": "EMSA; EMSA fitted to Hill equation, protein 2.1-43 nM (monomer); binding buffer and temperature not in material. Crystals: 100 mM HEPES pH 7.5, 2 mM MgCl2, 20% PEG10000, 7 C", "conditions": "protein: recombinant; tags: C-terminal His6; chain copies: 2; four-way junction of 4 strands (b/h/r/x)"}, "CtGEN1 D143A": {"biological_target": "T6, CtGEN1 D143A (Chaetomium thermophilum? (printed C. …, UniProt G0RYN2 1-487, D143A))", "T6 sequence": "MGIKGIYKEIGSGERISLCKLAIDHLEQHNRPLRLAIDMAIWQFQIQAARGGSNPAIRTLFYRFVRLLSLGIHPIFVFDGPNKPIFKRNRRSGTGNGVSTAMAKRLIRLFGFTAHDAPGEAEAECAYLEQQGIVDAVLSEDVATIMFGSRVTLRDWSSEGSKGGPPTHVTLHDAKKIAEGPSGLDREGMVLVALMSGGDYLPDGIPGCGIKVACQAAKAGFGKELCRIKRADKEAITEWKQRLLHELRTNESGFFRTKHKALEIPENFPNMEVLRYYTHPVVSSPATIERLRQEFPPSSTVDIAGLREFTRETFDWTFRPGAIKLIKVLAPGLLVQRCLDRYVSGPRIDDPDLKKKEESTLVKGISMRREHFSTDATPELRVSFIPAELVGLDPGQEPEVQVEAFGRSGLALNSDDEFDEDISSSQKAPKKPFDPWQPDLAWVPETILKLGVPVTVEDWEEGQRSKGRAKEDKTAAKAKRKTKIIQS", "test": "EMSA; EMSA fitted to Hill equation, protein 2.1-43 nM (monomer); binding buffer and temperature not in material. Crystals: 100 mM HEPES pH 7.5, 2 mM MgCl2, 20% PEG10000, 7 C", "conditions": "protein: recombinant; tags: C-terminal His6; chain copies: 2; four-way junction of 4 strands (b/h/r/x)"}, "CtGEN1 D79A": {"biological_target": "T7, CtGEN1 D79A (Chaetomium thermophilum? (printed C. …, UniProt G0RYN2 1-487, D79A))", "T7 sequence": "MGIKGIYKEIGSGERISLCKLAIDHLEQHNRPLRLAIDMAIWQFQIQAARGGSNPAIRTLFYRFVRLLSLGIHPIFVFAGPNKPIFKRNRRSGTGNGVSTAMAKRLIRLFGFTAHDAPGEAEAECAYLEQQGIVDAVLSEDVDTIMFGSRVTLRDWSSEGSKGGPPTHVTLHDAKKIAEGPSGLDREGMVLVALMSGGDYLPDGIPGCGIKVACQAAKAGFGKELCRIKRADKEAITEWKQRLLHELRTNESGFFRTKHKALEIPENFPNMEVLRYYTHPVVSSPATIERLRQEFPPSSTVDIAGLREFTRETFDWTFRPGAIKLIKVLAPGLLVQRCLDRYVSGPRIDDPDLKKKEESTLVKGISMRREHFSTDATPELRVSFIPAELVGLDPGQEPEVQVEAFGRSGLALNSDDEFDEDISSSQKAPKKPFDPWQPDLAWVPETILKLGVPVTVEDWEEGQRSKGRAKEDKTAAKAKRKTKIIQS", "test": "EMSA; EMSA fitted to Hill equation, protein 2.1-43 nM (monomer); binding buffer and temperature not in material. Crystals: 100 mM HEPES pH 7.5, 2 mM MgCl2, 20% PEG10000, 7 C", "conditions": "protein: recombinant; tags: C-terminal His6; chain copies: 2; four-way junction of 4 strands (b/h/r/x)"}, "CtGEN1 [2]": {"biological_target": "T1, CtGEN1", "test": "crystal structure; Mg2+ (2 mM MgCl2); EMSA fitted to Hill equation, protein 2.1-43 nM (monomer); binding buffer and temperature not in material. Crystals: 100 mM HEPES pH 7.5, 2 mM MgCl2, 20% PEG10000, 7 C", "conditions": "protein: recombinant; tags: C-terminal His6; r strand 1-14 paired with h 17-30 (14 bp); r 16-30 paired with x 1-15 (15 bp); mismatch r15/x16"}, "CtGEN1 [3]": {"biological_target": "T1, CtGEN1", "test": "crystal structure; Mn2+ (1 mM MnCl2 soak); EMSA fitted to Hill equation, protein 2.1-43 nM (monomer); binding buffer and temperature not in material. Crystals: 100 mM HEPES pH 7.5, 2 mM MgCl2, 20% PEG10000, 7 C", "conditions": "protein: recombinant; tags: C-terminal His6; 14 bp with 3' overhang 1 nt on r strand"}}, "data": [{"binder": "four-way junction 3 (50 nt strands) (structured_DNA) DNA 1: GGCTAAGGGATCCGTCCTAGCAAGGGGCTGCTACCGGAGGCTTACATCGG DNA 2: CCGATGTAAGCCTCCGGTAGCAGCCTGAGCGGTGGTTGGATGTTGACTGC DNA 3: GCAGTCAACATCCAACCACCGCTCAACTCAACTGCAGTCTAGATGGACTG DNA 4: CAGTCCATCTAGACTGCAGTTGAGTCCTTGCTAGGACGGATCCCTTAGCC", "values": [{"measurement": "Kd", "setting": "CtGEN1 [1]", "result": "7.7 ± 0.01", "unit": "nM"}, {"measurement": "Kd", "setting": "CtGEN1 D141A", "result": "10 ± 0.01", "unit": "nM"}, {"measurement": "Kd", "setting": "CtGEN1 E122A", "result": "4.6 ± 0.04", "unit": "nM"}, {"measurement": "Kd", "setting": "CtGEN1 E120A", "result": "6.5 ± 0.1", "unit": "nM"}, {"measurement": "Kd", "setting": "CtGEN1 D38A", "result": "6.2 ± 0.05", "unit": "nM"}, {"measurement": "Kd", "setting": "CtGEN1 D143A", "result": "7.1 ± 0.01", "unit": "nM"}, {"measurement": "Kd", "setting": "CtGEN1 D79A", "result": "5.9 ± 0.05", "unit": "nM"}]}, {"binder": "junction 3 resolution product (crystal) (structured_DNA, 5'-phosphate at cleaved 5' end of h strand product) DNA 1: TCCAACCACCGCTCAACTCAACTGCAGTCT DNA 2: GAGCGGTGGTTGGA DNA 3: AGACTGCAGTTGAGTC", "values": [{"measurement": "binding result", "setting": "CtGEN1 [2]", "result": "binds"}]}, {"binder": "R-stem duplex as modeled in 5CNQ (dsDNA, 5'-phosphate at cleaved 5' end of h strand product) DNA 1: TCCAACCACCGCTCA DNA 2: GAGCGGTGGTTGGA", "values": [{"measurement": "binding result", "setting": "CtGEN1 [3]", "result": "binds"}]}]}
